Experimental data: patent US20110158954A1, “METHOD FOR PRODUCING GAMMA DELTA T CELL POPULATION” (priority 2007, published 2011)

B1: H296-H296: modified fibronectin fragment in which two H-296's are connected to each other (SEQ ID NO: 22) (protein)
chain: AIPAPTDLKFTQVTPTSLSAQWTPPNVQLTGYRVRVTPKEKTGPMKEINLAPDSSSVVVSGLMVATKYEVSVYALKDTLTSRPAQGVVTTLENVSPPRRARVTDATETTITISWRTKTETITGFQVDAVPANGQTPIQRTIKPDVRSYTITGLQPGTDYKIYLYTLNDNARSSPVVIDASTAIDAPSNLRFLATTPNSLLVSWQPPRARITGYIIKYEKPGSPPREVVPRPRPGVTEATITGLEPGTEYTIYVIALKNNQKSEPLIGRKKTDELPQLVTLPHPNLHGPEILDVPSTAMAIPAPTDLKFTQVTPTSLSAQWTPPNVQLTGYRVRVTPKEKTGPMKEINLAPDSSSVVVSGLMVATKYEVSVYALKDTLTSRPAQGVVTTLENVSPPRRARVTDATETTITISWRTKTETITGFQVDAVPANGQTPIQRTIKPDVRSYTITGLQPGTDYKIYLYTLNDNARSSPVVIDASTAIDAPSNLRFLATTPNSLLVSWQPPRARITGYIIKYEKPGSPPREVVPRPRPGVTEATITGLEPGTEYTIYVIALKNNQKSEPLIGRKKTDELPQLVTLPHPNLHGPEILDVPST
modifications: Fibronectin fragment named H296-H296

What was measured:
γδ T cells = test: Expansion of γδ T cell population using pamidronate or IPP (Example 1); type: cell-based; conditions: human PBMCs, IL-2 20 U/mL, immobilized FN fragment, day 14
Protocol: Apheresis was performed, or 50 mL blood was collected from human healthy donor obtained with informed consent. The collected blood was then diluted 2-folds with phosphate buffered saline (manufactured by NEXELL or SIGMA, hereinafter referred to as “PBS”), overlaid on Ficoll-paque (manufactured by GE Healthcare Bio-Science), and centrifuged at 600×g for 20 minutes. Peripheral blood mononuclear cells (hereinafter referred to as “PBMCs”) in an intermediate layer were collected with a pipette, and washed. The collected PBMCs were suspended in a storage solution composed of 90% (v/v) FBS (manufactured by MP Biomedicals, LLC)/10% (v/v) DMSO (manufactured by SIGMA), or a storage solution composed of equivolumes of CP-1 (manufactured by KYOKUTO PHARMACEUTICAL INDUSTRIAL CO., LTD.) containing 8% (w/v) human serum albumin (name of formulation: Buminate, manufactured by Baxter Limited, hereinafter referred as to “HSA”) and an RPMI 1640 medium (manufactured by SIGMA), and stored in liquid nitrogen. During expansion of γδ T cells, these stored PBMCs were rapidly melted in water bath at 37° C., and washed with RPMI 1640 medium containing 10 μg/mL DNase (manufactured by Calbiochem), 10% (v/v) human AB serum (manufactured by Cambrex), 2 mM L-glutamine (manufactured by Cambrex), and 100 μg/mL streptomycin sulfate (manufactured by MEIJI SEIKA KAISHA, LTD.) (hereinafter referred to as “10HRPMI+L-Gln”) or Iscove's Modified Dulbecco's Medium (IMDM) (manufactured by Invitrogen) containing 10 μg/mL DNase and 10% (v/v) human AB serum (hereinafter referred to as “10HIMDM”). Thereafter, the number of live cells was calculated by trypan blue staining method. The cells were subjected to each experiment.
A fibronectin fragment (hereinafter referred to as a “FN fragment”) (CH-296 and H296-H296) was immobilized on a culture equipment used in the following experiment. Concretely, a buffer having a pH of 5.0 composed of 2.20% (w/v) sodium citrate dihydrate, 0.80% (w/v) citric acid monohydrate and 2.20% (w/v) glucose (all manufactured by Nakalai Tesque Inc.) (hereinafter referred to as “ACD-A solution (pH 5.0)”), containing CH-296 (final concentration: 25 μg/mL) or H296-H296 (final concentration: 3 μg/mL), was added to a 24-well cell culture plate (manufactured by Becton Dickinson or Corning), in a volume of 240 μL each.
These culture equipments was incubated for 5 hours or more at room temperature. Immediately before use, the ACD-A solution (pH 5.0) containing CH-296 or H296-H296 was removed by aspiration from these culture equipments, and thereafter each well was washed with twice PBS, and then once with RPMI 1640 medium, and the culture equipments were subjected to each experiment. As a control, a plate to which nothing was immobilized was used.
PBMCs prepared in Example 1-(1) were suspended in 10HRPMI+L-Gln or 10HIMDM so as to have a concentration of 1×10^6 cells/mL, to prepare a cell suspension. Thereafter, the above-mentioned cell suspension was added to a plate to which nothing was immobilized or a plate immobilized with CH-296 or H296-H296, prepared in Example 1-(2), in a volume of 1 mL/well each. […]

K562 cells = test: Cytotoxic activity of cultured γδ T cell population, Calcein-AM release; type: cell-based, human; conditions: γδ T cells expanded 14 days with pamidronate on immobilized FN fragment; target cells K526 (so in the source); E/T 30; 4 hours
Protocol: The cytotoxic activity was determined for the cells on the fourteenth day from the initiation of culture prepared in Example 3-(1). The cytotoxic activity was evaluated by a method for assaying cytotoxic activity using Calcein-AM [Lichtenfels R. et al., J. Immunol. Methods 172(2), 227-239 (1994)]. […]
The cells on the fourteenth day from the initiation of culture prepared in Example 3-(1) were diluted with an RPMI 1640 medium containing 5% (v/v) human AB serum, 0.1 mM NEAA mixture, 1 mM sodium pyruvate (all manufactured by Cambrex), 2 mM L-glutamine, 10 μg/mL streptomycin sulfate (hereinafter referred to as “5HRPMI”) as effector cells, so as to have a concentration of 3×10^6 cells/mL. […] Upon the addition, the ratio of the effector cells (E) to the Calcein-labeled target cells (T) is expressed as an E/T ratio, and the measurements were made at an E/T ratio of 30. […] Thereafter, 100 μL of the culture supernatant was collected from each well, and the amount of Calcein released into the culture supernatant was determined with a fluorescence plate reader (Mithras LB 940, manufactured by BERTHOLD TECHNOLOGIES) (excited at 485 nm/measured at 535 nm). The “cytotoxic activity (%)” was calculated in accordance with the following formula.
Cytotoxic Activity (%)={(Measured Value in Each Well−Minimum Released Amount)/(Maximum Released Amount−Minimum Released Amount)}×100 […]

[1] = medium 10HRPMI + L-Gln, stimulant pamidronate 5 μM

| Molecule | Expansion Fold of γδ T Cells (Folds) Fourteenth Day of Culture (γδ T cells; [1]) | Cytotoxic Activity (%) (K562 cells) | Expansion Fold of γδ T Cells (Folds) Fourteenth Day of Culture (γδ T cells; medium 10HIMDM, stimulant IPP 5 μM) | Expansion Fold of γδ T Cells (Folds) Fourteenth Day of Culture (γδ T cells; medium 10HIMDM, stimulant pamidronate 5 μM) | Expansion Fold of γδ T Cells (Folds) Fourteenth Day of Culture (γδ T cells; medium 10HRPMI + L-Gln, stimulant IPP 5 μM) |
| --- | --- | --- | --- | --- | --- |
| CH-296: polypeptide comprising a cell binding domain, a heparin binding domain and a CS-1 domain of fibronectin (SEQ ID NO: 13) | ×3.85 Folds | 25.45 | – | – | – |
| B1 | ×5.76 Folds | – | ×4.39 Folds | ×3.18 Folds | ×16.27 Folds |
